Test results published in patent US20100095387A1, “METHODS AND REAGENTS FOR SCREENING NEW DRUGS AND FOR TREATING ION PUMP ASSOCIATED DISORDERS AND DISEASES” (priority 2005, published 2010).

Biological target: α3 subunit of the Na+/K+-ATPase, endogenous on mouse cells (cortical neurons, cortical slices, cardiac myocytes) (mouse) (UniProt Q6PIC6)
Test: cell-based or functional assay

Row | Substance | EC50 of c-fos induction (Fos in situ enzyme-linked immunoassay, cortical cultures) [nM]
1 | C-Ag95z8, soluble 95-kD COOH terminus of mouse agrin, y4 z8 (from UniProt A2ASQ1 1144-1950) (ligand) | 0.0127
2 | C-Ag95z0, soluble 95-kD COOH terminus of mouse agrin, y4 z0 (from UniProt A2ASQ1 1144-1950) (ligand) | 0.0119
